Measurements reported in patent publication US20220145295A1, “ENZYMATIC RNA SYNTHESIS” (President and Fellows of Harvard College, priority 2018, published 2022).

Test system: poly dT-15-mer initiator oligonucleotide
Test: Initial activity screen of polymerase μ R387K with divalent cations (rate of ssDNA generation)
Assay type: biochemical
Conditions: 200 μM dNTP, 37° C.
Description: FIGS. 3A to 3C. […] Denaturing gel electrophoresis analysis of dATP incorporation (FIG. 3B) and rATP incorporation (FIG. 3C) at nucleotide concentrations of 200-50 μM and 5.0-0.62 mM for dATP and rATP, respectively. These reactions were supplemented with 0.25 mM Mn^2+ and Mg^2+. The control reaction consisted of all reaction components except nucleotide. For all reactions, the initiator oligonucleotide was a HPLC-purified poly dT-15-mer.
Human polymerase μ R387K was expressed and purified as described in the materials and methods. Because it was unknown under which reaction conditions polymerase μ R387K functioned optimally, several reaction parameters were initially evaluated. […] Thus, polymerase p R387K, a confirmed DNA/RNA-directed polymerase, is useful for controlled enzymatic RNA synthesis.
Expressed proteins with terminal transferase activity were screened by determining the rate of RNA generation in terms of total RNA concentration and the length/distribution of RNA produced by the protein after incubation with natural rNTPs. […] The length of the RNA produced in these reactions was determined by comparing products to a 100-nt ssDNA ladder (Simplex Biosciences) using a 15% TBE-Urea denaturing gel (Thermo EC6885) following the manufacturer's protocol. […]

B1: polymerase μ R387K: Human polymerase μ with point mutation R387K, expressed and purified; SEQ ID NO: 1 (protein, listed as Homo sapiens)
chain: MLPKRRRARVGSPSGDAASSTPPSTRFPGVAIYLVEPRMGRSRRAFLTGLARSKGFRVLDACSSEATHVVMEETSAEEAVSWQERRMAAAPPGCTPPALLDISWLTESLGAGQPVPVECRHRLEVAGPRKGPLSPAWMPAYACQRPTPLTHHNTGLSEALEILAEAAGFEGSEGRLLTFCRAASVLKALPSPVTTLSQLQGLPHFGEHSSRVVQELLEHGVCEEVERVRRSERYQTMKLFTQIFGVGVKTADRWYREGLRTLDDLREQPQKLTQQQKAGLQHHQDLSTPVLRSDVDALQQVVEEAVGQALPGATVTLTGGFRRGKLQGHDVDFLITHPKEGQEAGLLPRVMCRLQDQGLILYHQHQHSCCESPTRLAQQSHMDAFEKSFCIFRLPQPPGAAVGGSTRPCPSWKAVRVDLVVAPVSQFPFALLGWTGSKLFQRELRRFSRKEKGLWLNSHGLFDPEQKTFFQAASEEDIFRHLGLEYLPPEQRNA
0.25 mM Co^2+, worst rate
  rate of ssDNA generation: ~100 RFU/minute
Combination of Mn^2+ and Mg^2+ at 0.25 mM, highest rate
  rate of ssDNA generation: ~650 RFU/minute
